The results in this text go back to patent US20170334985A1 (Genentech, published 2017).

Experiment [1] has as its target T1, human IL-17AF heterodimer (human, UniProt Q16552 24-155; Q96PD4 31-163, limits assumed).
T1 sequence 1: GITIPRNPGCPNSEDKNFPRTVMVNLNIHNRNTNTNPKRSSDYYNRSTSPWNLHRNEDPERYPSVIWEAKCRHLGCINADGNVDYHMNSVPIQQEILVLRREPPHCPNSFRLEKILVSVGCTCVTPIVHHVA
T1 sequence 2: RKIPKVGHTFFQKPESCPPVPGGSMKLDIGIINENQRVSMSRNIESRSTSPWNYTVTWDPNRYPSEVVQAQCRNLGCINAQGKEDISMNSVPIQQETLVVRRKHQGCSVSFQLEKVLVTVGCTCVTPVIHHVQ
The experiment in a line: cell-based or functional assay.

In the next experiment the target is T2, human IL-17FF (human, UniProt Q96PD4 31-163).
T2 sequence: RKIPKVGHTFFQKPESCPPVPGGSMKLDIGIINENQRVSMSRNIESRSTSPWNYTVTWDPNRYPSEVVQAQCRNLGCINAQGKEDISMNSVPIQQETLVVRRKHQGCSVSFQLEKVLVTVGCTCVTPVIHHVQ
The experiment in a line: cell-based or functional assay.

The target in the next experiment is T3, human IL-13 (human, UniProt P35225 35-146, limits assumed).
T3 construct: also called recombinant human IL-13
T3 sequence (P35225 other isoform, or with tags, fused parts or gaps limits assumed): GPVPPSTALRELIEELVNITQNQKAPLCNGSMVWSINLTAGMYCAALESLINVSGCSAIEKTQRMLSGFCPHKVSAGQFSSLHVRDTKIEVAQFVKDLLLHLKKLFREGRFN
The experiment in a line: SPR (BIAcore T200), antibody captured by anti-human Fc on CM5 chip, cytokine injected, 25 C, 1:1 Langmuir model. The method, then: (§1) Binding affinities of the anti-IL-17/anti-IL-13 bispecific antibody against human and cynomolgus monkey IL-13 cytokines were measured with a BIAcore™-T200 instrument. Anti-IL-13 antibody was captured by mouse anti-human Fc antibody (GE Healthcare, cat #BR-1008-39) coated on CM5 biosensor chips to achieve approximately 500 response units (RU). Four-fold serial dilutions (50 nM to 49 pM) of human IL-13, human IL-13R130Q (a common IL-13 variant associated with allergy and asthma, see Vladich et al., 2005, J. Clin Invest., 115:747-754), and cyno IL-13 were injected in FIBS-P buffer (GE Healthcare) at 25° C. with a flow rate of 30 μl/min. Association rates (kₒₙ) and dissociation rates (koff) were calculated using a simple one-to-one Langmuir binding model (BIAcore T200 Evaluation Software version 2.0). The equilibrium dissociation constant (KD) was calculated as the ratio koff/kₒₙ.
On the technique in general: SPR reads the build-up and loss of mass on a sensor chip optically.

For a further experiment, the target named is T4, human IL-13 R130Q (human, UniProt P35225 35-146, limits assumed).
T4 construct: Common IL-13 variant
T4 sequence (P35225 35-146 limits assumed, stated change not applied): as the sequence (P35225 other isoform, or with tags, fused parts or gaps limits assumed) above, with R110Q counted along it
The description is as above. How it is done: as §1

For the next experiment, the target named is T5, cynomolgus monkey IL-13 (cynomolgus monkey, UniProt Q5I6E4 19-132 (Macaca thibetana entry), limits assumed).
T5 construct: also called cyno IL-13
T5 chain: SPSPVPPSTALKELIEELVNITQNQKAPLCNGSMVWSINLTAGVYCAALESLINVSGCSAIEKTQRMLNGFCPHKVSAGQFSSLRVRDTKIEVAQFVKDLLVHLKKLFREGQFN
The description is as above. The method, then: as §1

The target of a further experiment is T6, human IL-17AA (human, UniProt Q16552 20-155, limits assumed).
T6 construct: Bought from R&D Systems, cat #317-ILB-050; also called IL-17A homodimer
T6 sequence: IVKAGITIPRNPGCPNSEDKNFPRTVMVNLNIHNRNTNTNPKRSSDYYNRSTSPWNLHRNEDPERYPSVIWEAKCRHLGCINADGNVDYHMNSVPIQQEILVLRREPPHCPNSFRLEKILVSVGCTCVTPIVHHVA
The experiment in a line: SPR (BIAcore T200), bispecific antibody captured by anti-human Fc on CM5 chip, cytokine injected, 25 C, 1:1 Langmuir model. The method, then: (§2) Binding affinities of anti-IL-17/anti-IL-13 bispecific antibody against various IL-17 cytokines were measured by Surface Plasmon Resonance (SRP) using a BIAcore™-T200 instrument. Anti-IL-17/anti-IL-13 bispecific antibody was captured by mouse anti-human Fc antibody (GE Healthcare, cat #BR-1008-39) coated on CM5 biosensor chips to achieve approximately 500 response units (RU). For kinetics measurements, five-fold serial dilutions (20 nM to 32 pM) of human IL-17AA (R&D Systems, cat #317-ILB-050), human IL-17AF heterodimer, human IL-17FF (R&D Systems, cat #1335-IL-025/CF), cyno IL-17AA, cyno IL-17AF, and cyno IL-17FF were injected in HBS-P buffer (GE Healthcare) at 25° C. with a flow rate of 30 μl/min. Association rates (kₒₙ) and dissociation rates (koff) were calculated using a simple one-to-one Langmuir binding model (BlAcore T200 Evaluation Software version 2.0). The equilibrium dissociation constant (KD) was calculated as the ratio koff/kₒₙ.

For another experiment, the target named is T7, cyno IL-17AA (cynomolgus monkey, UniProt A0A2K5TTB0 24-155).
T7 construct: Recombinant protein in the SPR assay; also called cynomolgus monkey IL-17AA; IL-17A homodimer (cynomolgus monkey)
T7 sequence: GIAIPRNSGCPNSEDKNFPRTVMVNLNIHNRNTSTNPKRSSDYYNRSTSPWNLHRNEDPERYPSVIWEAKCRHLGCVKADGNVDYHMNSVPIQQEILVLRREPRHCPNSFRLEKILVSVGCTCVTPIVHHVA
The description is as above. How it is done:
as §2

B1: Parental anti-IL17 antibody (antibody, V domains shown)
VH: EVQLVESGGGLVQPGRSLRLSCAASGFTFDDYAMHWVRQAPGKGLEWVSGINWSSGGIGYADSVKGRFTISRDNAKNSLYLQMNSLRAEDTALYYCARDIGGFGEFYWNFGLWGRGTLVTVSS
VL: not shown
As for B1, the “IC90 (molar ratio), inhibition of IL-17AF-induced G-CSF expression in normal human foreskin fibroblasts (ELISA)” value in experiment [1] is ~1 molar ratio. In the experiment with human IL-17FF, the “IC90 (molar ratio), inhibition of IL-17FF-induced G-CSF expression in normal human foreskin fibroblasts (ELISA)” value is ~1 molar ratio.

B2: anti-IL-13/IL-17 bispecific antibody (bispecific antibody, human IgG4 S228P)
heavy 1: not shown
VL 1: DIVLTQSPDSLSVSLGERATINCRASKSVDSYGNSFMHWYQQKPGQPPKLLIYLASNLESGVPDRFSGSGSGTDFTLTISSLQAEDVAVYYCQQNNEDPRTFGGGTKVEIKR
heavy 2: EVQLVESGGGLVQPGRSLRLSCAASGFTFDDYAMHWVRQAPGKGLEWVSGINWSSGGIGYADSVKGRFTISRDNAKNSLYLQMNSLRAEDTALYYCARDIGGFGEFYWNFGLWGRGTLVTVSSASTKGPSVFPLAPCSRSTSESTAALGCLVKDYFPEPVTVSWNSGALTSGVHTFPAVLQSSGLYSLSSVVTVPSSSLGTKTYTCNVDHKPSNTKVDKRVESKYGPPCPPCPAPEFLGGPSVFLFPPKPKDTLMISRTPEVTCVVVDVSQEDPEVQFNWYVDGVEVHNAKTKPREEQFNSTYRVVSVLTVLHQDWLNGKEYKCKVSNKGLPSSIEKTISKAKGQPREPQVYTLPPSQEEMTKNQVSLSCAVKGFYPSDIAVEWESNGQPENNYKTTPPVLDSDGSFFLVSRLTVDKSRWQEGNVFSCSVMHEALHNHYTQKSLSLSLGK
VL 2: not shown
notes: Knobs-into-holes human IgG4; also called anti-IL-17/anti-IL-13 bispecific antibody; anti-IL-13/IL-17 IgG4 bispecific antibody
B2: the Kd (in general, the constant that tells how readily two partners part at equilibrium) with human IL-13 is 0.0355 nM; with human IL-13 R130Q, < 0.001 nM; in the experiment with cynomolgus monkey IL-13, < 0.001 nM; with human IL-17AA it was 0.021 nM; with cyno IL-17AA, 0.033 nM. In addition, the koff (as a rule, the first-order rate constant of dissociation) in the experiment with human IL-13 was 2.07e-05 s⁻¹; with human IL-13 R130Q it was < 1e-06 s⁻¹; in the experiment with cynomolgus monkey IL-13, < 1e-06 s⁻¹; in the experiment with human IL-17AA, 0.000118 s⁻¹; with cyno IL-17AA it was 0.000291 s⁻¹. For the same molecule, the kon (as a rule, the rate constant with which the complex forms) with human IL-13 was 584000 M⁻¹ s⁻¹; in the experiment with human IL-13 R130Q it was 864000 M⁻¹ s⁻¹; in the experiment with cynomolgus monkey IL-13, > 1e+06 M⁻¹ s⁻¹; with human IL-17AA, 5.55e+06 M⁻¹ s⁻¹; with cyno IL-17AA, 8.89e+06 M⁻¹ s⁻¹.
